Results from paper PMC9122904, “Insights into the client protein release mechanism of the ATP-independent chaperone Spy” (Nature Communications, 2022).
Changes are numbered by the printed parent chain. Numbers in names are those of the source.

Legend:
Experiment in all cases: BLI; Octet RED96; client biotinylated and loaded on streptavidin sensors; Spy or Spy variant in solution at 0.25, 0.5, 1, 1.5 and 2 μM; 40 mM HEPES, 150 mM NaCl, pH 7.5; Kd calculated as koff/kon
Conditions in all cases: both partners purified
Spy_(27-127) = biological target: T1, Spy_(27-127) (UniProt P77754 50-150)
T1 construct: Spy chaperone, residues 27-127; source: E. coli BL21 (DE3), purified (Ni-NTA, cation exchange, SEC); not shown: His6, N-terminal, cleaved; SUMO, N-terminal, cleaved
T1 sequence (looked up): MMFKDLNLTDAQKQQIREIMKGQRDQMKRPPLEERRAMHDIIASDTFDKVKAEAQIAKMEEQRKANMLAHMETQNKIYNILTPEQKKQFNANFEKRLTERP
Outline: (§1)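 Client proteins were biotinylated with EZ-link NHS-biotin at a 1:1 molar ratio, loaded onto streptavidin sensors, and measured by biolayer interferometry on an Octet RED96. The loaded sensors were dipped into 40 mM HEPES, 150 mM NaCl, pH 7.5 holding the analyte protein at 0.25, 0.5, 1, 1.5 or 2 μM, then moved to buffer without it. Fitting the wavelength-shift association and dissociation curves in SigmaPlot 12.0 gave the observed association rate and koff, kon was taken from the observed rate plotted against analyte concentration, and Kd was calculated as koff/kon.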

Spy_(27-124) = biological target: T2, Spy_(27-124) (UniProt P77754 50-147)
T2 construct: source: E. coli BL21 (DE3), purified (Ni-NTA, cation exchange, SEC); not shown: His6, N-terminal, cleaved; SUMO, N-terminal, cleaved
T2 sequence (looked up): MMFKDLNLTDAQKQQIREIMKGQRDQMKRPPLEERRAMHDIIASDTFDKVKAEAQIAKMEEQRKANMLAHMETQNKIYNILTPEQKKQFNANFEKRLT
Outline: as §1

Spy_(29-130) = biological target: T3, Spy_(29-130) (UniProt P77754 52-153)
T3 construct: Spy chaperone, residues 29-130; source: E. coli BL21 (DE3), purified (Ni-NTA, cation exchange, SEC); not shown: His6, N-terminal, cleaved; SUMO, N-terminal, cleaved
T3 sequence (looked up): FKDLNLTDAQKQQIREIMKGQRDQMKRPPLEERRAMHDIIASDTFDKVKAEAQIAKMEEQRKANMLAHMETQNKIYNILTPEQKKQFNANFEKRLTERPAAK
Outline: as §1

Spy_(29-124) = biological target: T4, Spy_(29-124) (UniProt P77754 52-147)
T4 construct: also called termini-free Spy; source: E. coli BL21 (DE3), purified (Ni-NTA, cation exchange, SEC); not shown: His6, N-terminal, cleaved; SUMO, N-terminal, cleaved
T4 sequence (looked up): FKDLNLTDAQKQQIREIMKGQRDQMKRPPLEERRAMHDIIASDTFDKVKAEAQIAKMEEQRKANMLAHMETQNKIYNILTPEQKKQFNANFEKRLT
Outline: as §1

Spy_(21-130) = biological target: T5, Spy_(21-130) (UniProt P77754 44-153)
T5 construct: Spy chaperone, residues 21-130; source: E. coli BL21 (DE3), purified (Ni-NTA, cation exchange, SEC); not shown: His6, N-terminal, cleaved; SUMO, N-terminal, cleaved
T5 sequence (looked up): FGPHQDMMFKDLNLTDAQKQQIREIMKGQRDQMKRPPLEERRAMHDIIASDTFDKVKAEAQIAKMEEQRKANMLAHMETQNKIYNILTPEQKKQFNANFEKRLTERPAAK
Outline: as §1

Spy_(21-127) = biological target: T6, Spy_(21-127) (UniProt P77754 44-150)
T6 construct: Spy chaperone, residues 21-127; source: E. coli BL21 (DE3), purified (Ni-NTA, cation exchange, SEC); not shown: His6, N-terminal, cleaved; SUMO, N-terminal, cleaved
T6 sequence (looked up): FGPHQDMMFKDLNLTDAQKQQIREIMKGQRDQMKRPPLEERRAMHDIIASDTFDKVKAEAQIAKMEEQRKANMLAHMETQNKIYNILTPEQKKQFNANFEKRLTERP
Outline: as §1

Spy_(K54D R55D) = biological target: T7, Spy_(K54D R55D) (UniProt P77754 24-161, K54D | R55D)
T7 construct: source: E. coli BL21 (DE3), purified (Ni-NTA, cation exchange, SEC); not shown: His6, N-terminal, cleaved; SUMO, N-terminal, cleaved
T7 sequence (looked up): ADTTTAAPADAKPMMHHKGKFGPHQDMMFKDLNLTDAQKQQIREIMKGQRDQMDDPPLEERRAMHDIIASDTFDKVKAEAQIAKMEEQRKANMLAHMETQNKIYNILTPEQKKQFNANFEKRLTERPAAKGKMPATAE
Outline: as §1

Spy D26K H96D = biological target: T8, Spy D26K H96D (UniProt P77754 24-161, D26K | H96D)
T8 construct: source: E. coli BL21 (DE3), purified (Ni-NTA, cation exchange, SEC); not shown: His6, N-terminal, cleaved; SUMO, N-terminal, cleaved
T8 sequence (looked up): T7 sequence (looked up) with D26K, D54K, D55R, H96D
Outline: as §1

koff (Spy_(27-127)): 0.0933 s⁻¹
koff (Spy_(27-124)): 0.089 s⁻¹
koff (Spy_(29-130)): 0.0937 s⁻¹
koff (Spy_(29-124)): 0.089 s⁻¹
koff (Spy_(21-130)): 0.461 s⁻¹
koff (Spy_(21-127)): 0.512 s⁻¹
koff (Spy_(K54D R55D)): 0.0743 s⁻¹
koff (Spy D26K H96D): 0.172 s⁻¹
B1: Im7 H40W L53A I54A (natural protein)
chain: MELKNSISDYTEAEFVQLLKEIEKENVAATDDVLDVLLEWFVKITEHPDGTDAAYYPSDNRDDSPEGIVKEIKEWRAANGKPGFKQG
modifications: biotin (EZ-link NHS-biotin, 1:1 molar ratio of biotin to protein)
notes: Im7 (colicin E7 immunity protein) with H40W L53A I54A; Spy was made with an N-terminal His6-SUMO tag that was cleaved; also called Im7AAW; partially folded client; source: purified by a similar procedure to Spy
